# Data: the nanobody polyreactivity screen of Harvey et al. (2022)
# Experiment: yeast display, Sf9 membrane polyspecificity reagent, FACS + sequencing; frameworks hold sequencing errors
# Outline: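 Genes from sorted yeast were amplified by colony PCR, read by MiSeq 2 × 250 sequencing and filtered on CDR length. These cells carried a synthetic nanobody library in Saccharomyces cerevisiae BJ5465 and were sorted by FACS into low and high (top ~1%) gates on anti-HA and streptavidin fluorescence. Polyreactivity is labelled according to the gate of origin.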
row,Sequence,polyreactivity (PSR sort gate)
1,QVQLVESGGGLVQAGGSLRLSCAASGRTFLRYRMGWYRQAPGKERELVATISRSGGGTTYADSVKGRFTISRYNAKNTVYLQMNSLKPEDTAVYYCNRDQTYPYQYNRWVGQYKYDYWGQGTQVTVSS,low polyreactivity
2,QVQLVESGGGLVQAGGSLRLSCAASGRTFLRYTMGWYRQAPGKERELVAAITYSGGSTYYADSVKGRFTISRDNAKNTVYLQMNSLKPEDTAVYYCAASYLWGYTEYYYWGQGTQVTVSS,high polyreactivity
3,QVQLVESGGGLVQAGGSLRLSCAASGRTFLSNAMGWYRQAPGKERELVADITFRGGNTYYADSVKGRFTISRGNAKNTVYLQMNSLKPEDTAVYYCAVLGYGRLSRVRYGYWGQGTQVTVSS,high polyreactivity
4,QVQLVESGGGLVQAGGSLRLSCAASGRTFLTNAMGWYRPAPGKERELVAAISSGASTNYADSVKGRFTISRDNAKNTVYLQMNSLKPEDTAVYYCAAQLTDYQSKTLSYDYWGQGTQVTVSS,low polyreactivity
5,QVQLVESGGGLVQAGGSLRLSCAASGRTFLTNAMGWYRQAPGKERELVAAISGGGDDTFYADSVKGRFTISRDNAKNTVYLQMNSLKPEDTAVYYCAADWYTPGWRKEEEYWGQGTQVTVSS,low polyreactivity
6,QVQLVESGGGLVQAGGSLRLSCAASGRTFLTNTMGWYRQAPGQEREWVATISNGGRTNYADSVKGRFTISRDNAKNTVYLQMNSLKPEDTAVYYCAKDYRAYHPHWYGSTFGWGQGTQVTVSS,high polyreactivity
7,QVQLVESGGGLVQAGGSLRLSCAASGRTFLTYAMGWYRQAPGKERELVAAISSSGVRTYYADSVKGRFTISRDNAKNTVYLQMNSLKPEDTAVYYCAAVGTGSSLRYDYWGQGSQVTVSS,high polyreactivity
8,QVQLVESGGGLVQAGGSLRLSCAASGRTFLVYSMGWYIQAPGKERELVAAISFSDGITYYADSVKGRFTISRDNAKNTVYLQMNRLKPEDTAVYYCATEILDYYYGSEYDYWGQGTQVTVTS,high polyreactivity
9,QVQLVESGGGLVQAGGSLRLSCAASGRTFLVYVMGWYRQAPGKERELVASITYSGGSTYYADSVKGRFTISRDNAKNTVYLQMNSLKPEDTAVYYCAAAQGRQPYRARGLYYYWGQGTQVTVSS,high polyreactivity
10,QVQLVESGGGLVQAGGSLRLSCAASGRTFLWNALGWYRQAPGKESELVARINLSGGRTYYADSVKGRFTISRDNAKNCVYLQMNSLKPEDTAVYYCAATVVRYRRDSWGQGTQVTVSS,low polyreactivity
11,QVQLVESGGGLVQAGGSLRLSCAASGRTFLYNALGWYRQAPGKERELVAAISWSGGSTYYADSVKGRFTISRDNAKNTVYLQMNSLKPEDTAVYYCAATGRRSGFFYWGQCTQVTVSS,high polyreactivity
12,QVQLVESGGGLVQAGGSLRLSCAASGRTFLYYAMGWSRQAPGKEMELVAAIRRGSSTYYADSVKGRFTISRDNAKITVYLQRNCPKPEDTAVYYCAARSFAITKYGSYDYWGQGTQVTVSS,high polyreactivity
13,QVQLVESGGGLVQAGGSLRLSCAASGRTFLYYAMGWYRQAPGKERELVAAISSGGSTNYADSVKGRFTISRDNAKNTVYLQMNSLIPEDTAVYDCNADYTSRETSDVIYEYDYWGQATQVTVSS,low polyreactivity
14,QVQLVESGGGLVQAGGSLRLSCAASGRTFLYYAMGWYRQAPGKERELVAGITSGGSTNYADSVKGRFTISRDNAKNTVYLQMNSLKPEETAVYYCAARYFPRIQYGRKGYDYWGQGTQVTVSS,low polyreactivity
15,QVQLVESGGGLVQAGGSLRLSCAASGRTFLYYAMGWYRQAPGKERELVARITLDGGSTNYADSVKGRFTISRDNAKNTVYLQMNSLKPEDTAVYYCAAQRGGPFPRVVDLYDYWGQGTQVTVSS,low polyreactivity
16,QVQLVESGGGLVQAGGSLRLSCAASGRTFLYYAMGWYRQAPGKERELVAVISRDGGSTYYADSVKGRFTISRDNAKNTVYLQMNSLKPEDTAVYYCAKRYGWASGYWNSNYGYLYDYWGQGTQVTVSS,high polyreactivity
17,QVQLVESGGGLVQAGGSLRLSCAASGRTFNHYAMGLYRQAPGKERELVAGITISGGSTYYADSVKGRFTISRDNAKNTVYLQMNSLKPEDTAVYYCNAVYEYYRHSKWTMDYWGQGTQVTVSS,low polyreactivity
18,QVQLVESGGGLVQAGGSLRLSCAASGRTFNIYDMGGYIPAPGTERELVAAITGRGTGTYYADSVKGRFTISRDNAKNTVYLQMNSLKPEDTAVYFCAAVRRWYYPALSEHDYWGQGTQVTVSS,low polyreactivity
19,QVQLVESGGGLVQAGGSLRLSCAASGRTFNLYAMGWYRQAPGKERELVAAIRYSDTSTYYADSVKGRFTISRDNAKNTVYLQMNSVKPEDTAVYYCAAYPGYKGGNYGYWGQGTKVTVSS,low polyreactivity
20,QVQLVESGGGLVQAGGSLRLSCAASGRTFNPYAMGWYRQAPGKERELVAAIRWRGTRTYYADSVKGRFTISRDNAKNTVYLQMNSLKPEDTAVYYCNALLGYYRWRRPVDYSYGSWGQGTQVTVSS,high polyreactivity
21,QVQLVESGGGLVQAGGSLRLSCAASGRTFNQYAMGWYRQAPGKERELVAAISRRTGRTYYADSVKGRFTISRDNAKNTVYLQMNSLKPEDTAVYYCNTLYFVGPDYGYDYWGQGTQVTVSS,high polyreactivity
22,QVQLVESGGGLVQAGGSLRLSCAASGRTFNVYAMGWYRQAPGKERELVASISSSDTTNYADSVKGRFTISRDNAKNTVYIQMNSLKPEDTAVYYCAADYTPDLLSKVDYWGQGTQVTVSS,low polyreactivity

row,Sequence,polyreactivity (PSR sort gate)
1,QVQLVESGGGLVQAGGSLRLSCAASGRTFNVYAMGWYRQAPGKERELVAVITNGGSTNYADSVKGRFTISRDNAKNTVYLQMNSLKPEDTAVYYCAGDYYASLTREDRDDYWGQGTQVTVSS,low polyreactivity
2,QVQLVESGGGLVQAGGSLRLSCAASGRTFNYYAMGWYRQAPGKERELVAAISTSGGSTYYADSVKGRFTISRDNAKNTVYLQMNSLKPEDTAVYYCNAVYRVWYAEWSTVGSPHDYWGQGTQVTVSS,low polyreactivity
3,QVQLVESGGGLVQAGGSLRLSCAASGRTFNYYNMGWYRQAPGKARELVAAISRGGTTYYADSVKGRFTISRDNAKKTVYLQMNSLKPEDTAVYYCAVAYAPRVQTVWSYVSGSTYYSSGQGTQVTVSS,high polyreactivity
4,QVQLVESGGGLVQAGGSLRLSCAASGRTFNYYNMGWYRQAPGKERELVAAISRGGTTYYADSVKGRFTISRDNAKKTVYLQMNSLKPEDTAVYYCAVAYAPRVQTVWSYVSGSTYYSWGQGTQVTVSS,high polyreactivity
5,QVQLVESGGGLVQAGGSLRLSCAASGRTFPAYAMGWYRQAPGKERELVAAISYSGGRTRYADSVKGRFTISRDNAMNSVYLQMNSLKPEDTAVYFCNRVIPTQSLRDYYWGQGTQVTVSS,high polyreactivity
6,QVQLVESGGGLVQAGGSLRLSCAASGRTFPDNAMGWYRQAPGKESEFVAAISSSGSTYYADSVKGRFTISRDNAKNTVYLQMNSLKPEDTAVYYCNRDDWPSYDFTGGDYWGQGTQVTVSS,low polyreactivity
7,QVQLVESGGGLVQAGGSLRLSCAASGRTFPDYAMGWYRQAPGKERELVARISYSGGSTSYADSVKGRFTISRDNAKNTVYLQMNSLKPEDTAVYYCNRETAYAVGRFEYCGQGTQVTVSS,low polyreactivity
8,QVQLVESGGGLVQAGGSLRLSCAASGRTFPFNAMGWYRQAPGKERELVAAIRWSGGSTYYADSVKGRFTISRDNAKNTVYLQMNSLKPEDTAVYYCAAVYPKIRSYRYGYWGQGTQVTVSS,high polyreactivity
9,QVQLVESGGGLVQAGGSLRLSCAASGRTFPGNAMGWYRQAPGKERELVAAINSRGSTYYADSVKGRFTISRDNAKHTVYLKMNSLKPEDTAVYYSAAYFGHYWRYYYWGQGTQVNVSS,high polyreactivity
10,QVQLVESGGGLVQAGGSLRLSCAASGRTFPGNAMGWYRQAPGKERELVAAISWSGTRTYYADSVKGRFTISRDNAKHTVYLQMNSLKPEDTAVYYCNVVVKGAWDYYPYDYWGQGTQVTVSS,high polyreactivity
11,QVQLVESGGGLVQAGGSLRLSCAASGRTFPGNDMGWYRQAPGKERELDAAISSDDSTYYADSVKWRFTMSRDNAKNTVYLKMNSLKPEDTAVYYCNAEYYEGYIGVPGSYWPYEYWGQGTQVTVSS,low polyreactivity
12,QVQLVESGGGLVQAGGSLRLSCAASGRTFPGYAMGWYRQAAGTERELVAGISYRGGSTYYADSVKGRFTISRDNAKNTVYLQMNSLKPEDTAVYYCARDYSRHKGDYWGQGTQVTVSS,low polyreactivity
13,QVQLVESGGGLVQAGGSLRLSCAASGRTFPGYAMGWYRQAPGKERELVAGISYRGGSTYYADSVKGRFTISRDIAKNTVYLQMNSLKPEDTAVYYCAREYSRHKGDYWGQGTQVTVSS,low polyreactivity
14,QVQLVESGGGLVQAGGSLRLSCAASGRTFPINAMGWYRQAPGKERELVASIRWTDGTTYYADSVKGRFTISRDSAKNTVYLQMNSLKPEDTAVFYCAADAEGSASKYDYWGQGTQVTVSS,low polyreactivity
15,QVQLVESGGGLVQAGGSLRLSCAASGRTFPIYAMGWYRQAPGKERELVATITWNDGNTYYADSVKGRFTISRDNAKNTVYLQMNSLKPEDTAVYYCAAKGGWPWHYHYQKNSEYDYWGQGTQVTVSS,low polyreactivity
16,QVQLVESGGGLVQAGGSLRLSCAASGRTFPLNAMGWYRQAPGKERELVASITKSTGNTRYADSVKGRFTISRDNAKNTVYLQMNSLKPEDTAVYYCAARSYRDRYYWGQGTQVTVSS,high polyreactivity
17,QVQLVESGGGLVQAGGSLRLSCAASGRTFPNNAMGWYRQAPGKERELVAVITWSGGSTYYADSVKGRFTISRDNAKNTVYLQMNSLKPEDTAVYYCATDYTGKWKDHYYYWGQGTQVTVSS,low polyreactivity
18,QVQLVESGGGLVQAGGSLRLSCAASGRTFPRNGMGWYRQAPGKERELVAAISWSGGRTYYADSVKGRFTISRDNAKNTVYLQMNSLKPEDTAVYYCNALYFRKAGYWGKGTQVTVSS,high polyreactivity
19,QVQLVESGGGLVQAGGSLRLSCAASGRTFPSNVMGWYRQAPGKEREFVAAITTRGGNTRYADSVKGRFTISRDNAKNTVYLQMNSLKPEDTAVYYCAAKVKPGYDYWGQGTQVTVSS,low polyreactivity
20,QVQLVESGGGLVQAGGSLRLSCAASGRTFPSYTMGWYRQAPGKERELVAAISKSGGNTYYADSVKGRFTISRDNAKNTVYLQMNSLKPEDTAVYYCNADTYALGAAVIPGDEYWGQGTQVTVSS,low polyreactivity
21,QVQLVESGGGLVQAGGSLRLSCAASGRTFPVNAMGWYRQAPGKERELVAAIRRRGGSTYYADSVKGRFTISRDNAKNTVYLQMNSRKPEDTAVYYCAADKSSSFSYSYGYWGHGTQVTVSS,low polyreactivity
